Assay results taken from patent publication US20260000781A1, “FC CONJUGATES INCLUDING AN INHIBITOR OF CD73 AND USES THEREOF” (Cidara Therapeutics, Inc., priority 2022, published 2026).

How the values were obtained:
[1] = molecular target: T1, recombinant human CD73 enzyme (human) (UniProt P21589); test: cell-based or functional assay
T1 sequence (looked up): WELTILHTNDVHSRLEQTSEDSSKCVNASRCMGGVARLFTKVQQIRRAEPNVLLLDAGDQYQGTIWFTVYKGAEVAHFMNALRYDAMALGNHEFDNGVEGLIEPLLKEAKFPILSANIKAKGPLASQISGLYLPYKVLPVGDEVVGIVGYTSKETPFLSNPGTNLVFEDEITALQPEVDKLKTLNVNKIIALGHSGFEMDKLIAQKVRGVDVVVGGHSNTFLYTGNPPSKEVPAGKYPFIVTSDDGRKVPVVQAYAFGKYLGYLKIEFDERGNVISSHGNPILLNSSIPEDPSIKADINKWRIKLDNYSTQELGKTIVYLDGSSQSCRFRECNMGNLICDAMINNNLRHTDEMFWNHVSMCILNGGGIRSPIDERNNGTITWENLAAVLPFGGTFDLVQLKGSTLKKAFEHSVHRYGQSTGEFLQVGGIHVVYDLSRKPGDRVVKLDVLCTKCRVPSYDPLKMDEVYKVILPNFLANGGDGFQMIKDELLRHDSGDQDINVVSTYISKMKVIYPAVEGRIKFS

[2] = molecular target: T2, human CD73 expressed on cells (human) (UniProt P21589); test: cell-based or functional assay
T2 sequence (looked up): T1 sequence (looked up)

cell-free CD73 enzyme inhibition, maximal inhibition [1] [%]	Substance	Cell internalization EC50 (nM), Fab-ZAP saporin assay, MDA-MB-231 [2] [nM]
80	Oleclumab (antibody)	–
–	hIgG1 isotype control (antibody)	> 100
